Values quoted from earlier work as cited in paper PMC8314067.
Like-named read-outs stand apart in the source and are kept apart here.

What was measured:
[1] = molecular target: type II receptor complex (IL-4Rα/IL-13Rα1) (Homo sapiens) (UniProt P24394)
[2] = molecular target: type I receptor complex (IL-4Rα/γc) (Homo sapiens) (UniProt P24394)
[3] = molecular target: type II receptor complex (IL-4Rα/IL-13Rα1) (Homo sapiens) (UniProt P24394); remark: listed apart in the source

| Substance | Kd [1] [µM] | Kd [2] [µM] | Kd [3] [µM] |
| --- | --- | --- | --- |
| IL-13 (from UniProt P35225) | 0.02 |  |  |
| IL-4 (from UniProt P05112) |  | 0.559 | 0.487 |
